“Also recorded” adds a separate entry of the source.
Tests used:
Type in all cases: cell-based, human
[1] = test system: IL-8; assay: IL-8 expression in PBECs (ELISA, RT-PCR); conditions: ML-1 10 and 100 ng/ml, 24 and 48 hours, ELISA
Experimental: (§1) FIG. 5. Analysis of IL-6 (FIG. 5A) and IL-8 (FIG. 5B) expression in primary bronchial epithelial cells (PBECs) and human umbilical vein endothelial cells (HUVECs) stimulated by ML-1. The IL-6 and IL-8 protein release in the supernatant was determined by ELISA as described in Example 8. The results were expressed as mean+SD (n=6). *p<0.05 was considered significant vs control.
(§2) FIG. 7A-7D. Effect of PD98059 on IL-6 (FIG. 7A) and IL-8 (FIG. 7B) protein production in PBECs and HUVECs. The cells were preincubated with varying concentrations of PD98059, SB202190, or DMSO vehicle control for 1 hour, followed by stimulation with ML-1 (100 ng/ml) for 24 hours. The results are expressed as the mean+SD (n=6). *P<0.05 when compared to cultures without the addition of PD98059. FIGS. 7C and 7D. Semi-quantitative analysis of gene expression for IL-6 (FIG. 7C) and IL-8 (FIG. 7D) by RT-PCR. The cells were preincubated as described above and treated with ML-1 for 4 hours. RT-PCR was performed as described in Example 8. The results shown are representative of three separate experiments.
(§3) Primary bronchial epithelial cells (PBECs) were purchased from Clonetics (San Diego, Calif.) and cultured in bronchial epithelial basal medium (Clonetics) containing 0.5 ng/ml human recombinant epidermal growth factor (EGF), 52 mg/ml bovine pituitary extract, 0.1 mg/ml retinoic acid, 0.5 mg/ml hydrocortisone, 5 mg/ml insulin, 10 mg/ml transferrin, 0.5 mg/ml epinephrine, 6.5 ng/ml triiodothyronine, […] gentamicin, and 50 pg/ml amphotericin-B (Clonetics). […]
(§4) The amplification reaction was performed for 23 cycles with denaturation at 94° C. for 45 seconds, annealing at 56° C. for 45 seconds, and extension at 72° C. for 45 seconds. PCR products were detected by ethidium bromide staining and normalized by the intensity of an amplified housekeeping gene, G3PDH (see above). […] IL-6 and IL-8 protein levels in the collected supernatants were determined with a commercially available ELISA kit (Biosource, Camarillo, Calif.) according to the manufacturer's instructions.

[2] = test system: IL-6; assay: IL-6 expression in PBECs (ELISA, RT-PCR); conditions: ML-1 10 and 100 ng/ml, 24 and 48 hours, ELISA
Experimental: as §1, §2, §3, §4

[3] = test system: ERK1/2; assay: Western blotting of ERK1/2 phosphorylation in HUVECs; conditions: ML-1 100 ng/ml
Experimental: (§5) FIGS. 6A-6D. Kinetic activation of ERK1/2 by ML-1 in PBECs (FIG. 6A) and HUVECs (FIG. 6B). The cells were incubated with or without ML-1 (100 ng/ml) for different time points as indicated. Western blotting analysis was performed by using antibodies against different MAP kinases as described in Example 8. FIGS. 6C and 6D. Effect of PD98059 on ML-1-induced phosphorylation of ERK1/2 in PBECs (FIG. 6C) and HUVECs (FIG. 6D). The cells were preincubated with PD98059 ([…]) or DMSO vehicle control for 1 hour, followed by stimulation of PBECs and HUVECs with medium or ML-1 for 20 minutes or 10 minutes, respectively. The results shown are representative of three separate experiments.
For analysis of activation of MAP kinases, PBECs were treated with IL-17 (100 ng/ml) for various time periods, with or without the MEK 1/2 inhibitor PD98059 ([…]; Calbiochem, La Jolla, Calif.) (15), the p38 inhibitor SB202190 (0.5-10 μM; ref. 16), or a vehicle control, DMSO (Me2SO) for 1 hour. […] Following the treatment, the cells were washed with ice-cold PBS. Cell pellets were immediately lysed in cold lysis buffer [20 mM Tris (pH 7.4), 4 mM EDTA, 2 mM EGTA, 1 mM PMSF, […] aprotinin, 200 mg/ml leupeptin, 50 mM NaF, 5 mM NaRP2O7, 1 mM Na3VO4, and 1% Nonidet P40; all purchased from Sigma]. Extracts (1×10^6 cell equivalents/lane) were suspended with an equal volume of 2× loading buffer [0.1 M Tris-HCl (pH 6.8)], 4% SDS, 0.005% bromophenol blue, and 20% glycerol) containing 2-ME (0.7 M) and subjected to 4-20% Tris-glycine gel electrophoresis (NOVEX, San Diego, Calif.). Gels were then transferred to PVDF membranes (BIO-RAD, Hercules, Calif.) with a Trans Blot apparatus (NOVEX). The membranes were immersed overnight in This-buffered saline/Tween 20 containing 5% nonfat dry skim milk (Carnation, Los Angeles, Calif.).
(§6) Immunoreactive proteins were detected using antibodies against various kinases and phosphorylated kinases. […] Western blotting detection reagents (Amersham) and Hyper ECL luminescence detection film (Amersham) were used. […]

[4] = test system: JNK; assay: Western blotting of JNK activation in ML-1-stimulated cells; conditions: any time point, FIG. 6A (PBECs)
Experimental: as §5
(§7) For analysis of activation of MAP kinases, PBECs were treated with IL-17 (100 ng/ml) for various time periods, with or without the MEK 1/2 inhibitor PD98059 ([…]; Calbiochem, La Jolla, Calif.) (15), the p38 inhibitor SB202190 (0.5-10 μM; ref. 16), or a vehicle control, DMSO (Me2SO) for 1 hour. […] Following the treatment, the cells were washed with ice-cold PBS. […]
as §6

[5] = test system: p38; assay: Western blotting of p38 activation in ML-1-stimulated cells; conditions: any time point, FIG. 6A (PBECs)
Experimental: as §5, §7, §6

B1: ML-1: new member of the IL-17 cytokine family, SEQ ID NO:2; His-tagged recombinant protein expressed in COS-7 cells and affinity purified (protein, listed as Homo sapiens)
chain: MKLDIGIINENQRVSMSRNIESRSTSPWNYTVTWDPNRYPSEVVQAQCRNLGCINAQGKEDISMNSVPIQQETLVVRRKHQGCSVSFQLEKVLVTVGCTCVTPVIHHVQ
modifications: His tag
With B1 the IL-8 production [1] was “time-dependent increase; also recorded: significantly induced”, the IL-6 production [2] was “time-dependent increase; also recorded: significantly induced” and the “time of maximum phosphorylation of ERK1/2” value [3] was 10 min. For the same molecule, the “time of return of ERK1/2 phosphorylation to baseline levels” value [3] was at most 60 min, the “activation of JNK kinase” value [4] was “No activation” and the “activation of p38 kinase” value [5] was “No activation”.

Reference: US20060073572A1, “Cytokine structurally related to IL-17” (The Johns Hopkins University, priority 2001, published 2006)
